Experimental data from publication PMC10244618.
Values joined by “and” are separate entries in the source; they are usually repeats but may differ in a detail not shown here. Equal values may be shown once.

B1: NF2 (merlin) isoform 7, human, full length (507 aa, lacks exons 2-3 = isoform-1 residues 39-121; exon-16 C-terminus), P35240-4 (parent)
chain: MAGAIASRMSFSSLKRKQPKTFTVRIVTMDAEMEFNCEVKKQILDEKIYCPPEASVLLASYAVQAKYGDYDPSVHKRGFLAQEELLPKRVINLYQMTPEMWEERITAWYAEHRGRARDEAEMEYLKIAQDLEMYGVNYFAIRNKKGTELLLGVDALGLHIYDPENRLTPKISFPWNEIRNISYSDKEFTIKPLDKKIDVFKFNSSKLRVNKLILQLCIGNHDLFMRRRKADSLEVQQMKAQAREEKARKQMERQRLAREKQMREEAERTRDELERRLLQMKEEATMANEALMRSEETADLLAEKAQITEEEAKLLAQKAAEAEQEMQRIKATAIRTEEEKRLMEQKVLEAEVLALKMAEESERRAKEADQLKQDLQEAREAERRAKQKLLEIATKPTYPPMNPIPAPLPPDIPSFNLIGDSLSFDFKDTDMKRLSMEIEKEKVEYMEKSKHLQEQLNELKTEIEALKLKERETALDILHNENSDRGGSSKHNTIKKPQAQGRRPICI

Variants of: B1
Experiment: reverse yeast two-hybrid deep mutational scan (rY2H-seq): NF2 isoform 7 mutant library as bait mated with wild-type prey strains; selection on medium lacking adenine for non-interacting pairs; NextSeq paired-end sequencing; enrichment vs …
Details: yeast diploids after mating (RBait_S3 x RPrey_S3), 30 °C, selection for reporter genes on NB agar, HIGHER = WEAKER BINDING (the opposite of display enrichments): higher = stronger loss of interaction: reverse Y2H selects yeast in which bait and prey do NOT interact (growth without adenine), so a …, hits-only table, scale: rY2H score, numbering: uniprot, sequence starts at 1
[1] = with EMILIN1 (elastin microfibril interfacer 1), Q9Y6C2, human ABL2 co-expressed as the kinase-dead K35M mutant …
[2] = with EMILIN1 (elastin microfibril interfacer 1), Q9Y6C2, human tyrosine kinase ABL2 co-expressed as the active kinase …
[3] = with KDM1A (lysine-specific histone demethylase 1A; the table's label AOF2 is a gene synonym of KDM1A), O60341, human ABL2 co-expressed as the kinase-dead K35M mutant …
[4] = with KDM1A (lysine-specific histone demethylase 1A; the table's label AOF2 is a gene synonym of KDM1A), O60341, human tyrosine kinase ABL2 co-expressed as the active kinase …
[5] = with NF2 C-terminal domain (wild type; homomeric NF2-NF2 interaction), P35240, human ABL2 co-expressed as the kinase-dead K35M mutant …, partner unresolved
[6] = with PIK3R3 (phosphatidylinositol 3-kinase regulatory subunit gamma), Q92569, human tyrosine kinase ABL2 co-expressed as the active kinase …

Variant	enrichment [1]	enrichment [2]	enrichment [3]	enrichment [4]	enrichment [5]	enrichment [6]
K490E	5.91	–	–	–	–	–
P163L	3.08	3.88	7.24	5.95	1.78	12.3
P396A	1.61 and 2.83	–	–	4.55	–	1.66
P396L	3.03	2.65	2.88	–	–	–
T397R	2.87 and 2.64	–	2.17	–	–	–
T397A	2.04	–	1.66	–	–	–
E177L	4.46	2.3	–	–	5.54	–
K66E	2.7	–	–	3.77	–	4.55
K372E	5.53 and 3.24	4.46 and 4.21	1.68	–	–	–
Q345T	23.4	13.4	21.7	6.27	–	–
R379L	2.11	–	–	–	–	–
A406S	7.48 and 4.82	14.3	11.8	14	–	–
D430L	1.61	–	3.75	–	–	–
Q261L	4.37	–	–	–	–	–
L300E	5.44	5.18	–	–	4.73 and 3.13	–
L342E	3.3 and 9.12	3.94	4.91	–	1.9	–
G135E	2.42	–	2.61	–	–	–
F415K	2.05	–	1.8 and 3.49	–	–	2.73
P413L	1.88	2.88	–	–	–	–
K170R	2.58	–	–	3.72	–	2.74
R268K	3.47	–	–	–	–	–
D299A	1.54	–	–	–	–	–
Q327K	1.55	–	–	–	–	–
R25L	3.54	–	4.09	7.07	–	–
K211I	3.12	3.16	5.27	2.6	2.67	2.81 and 3.72

Variant	enrichment [1]	enrichment [2]	enrichment [3]	enrichment [4]	enrichment [5]	enrichment [6]
K330E	2.8 and 1.9	1.83	4.14 and 1.58	–	–	–
E344G	6.34 and 11.1	–	10.3	–	–	–
E344L	4.18 and 2.17	2.34 and 1.8	–	2.31	–	–
E344K	1.78 and 4.12	3.82 and 2.77	1.57	–	–	4.06
A381K	4.94	10.4	–	6.12	–	–
A350K	1.95	4.8 and 3.36	–	–	–	–
K246A	2.24	–	–	–	–	–
K246L	3.03 and 1.45	–	–	–	–	–
T473L	4.41	–	8.75	–	3.74 and 2.38	4.41
S60L	2.18	–	2.95	–	–	–
I329L	3	2.26 and 2.09	4.07	3.51	1.91 and 3.47	–
I412L	2.06	–	–	–	–	2.03
V352E	1.87	–	–	–	–	–
K388A	1.75	–	2.24 and 3.28	1.43 and 2.22	–	3.36
A240S	2.4	–	–	1.71	–	–
L156P	2.26	–	3.08 and 3.61	1.95	3.25 and 1.98	–
G419V	2.41	–	–	–	–	–
G419A	1.71	–	–	1.44	–	–
R364E	1.5	5.32	–	–	2.76	–
I171K	2.56	1.76	4.6	8.42	–	6.85
M292S	1.52	–	1.74	–	1.49	1.46
N180T	1.38	–	–	–	–	–
G78A	3.44	–	–	–	–	–
Q387L	1.46	1.83	–	2.07	–	5.44

More lines, now with the values ahead:

enrichment [1]	enrichment [2]	enrichment [3]	enrichment [4]	enrichment [5]	enrichment [6]	Variant
1.75	5.66	4.26 and 3.03	–	–	–	A333K
2.64	3.2	7.07	–	–	–	R341K
2.21	2.34	–	5.64	2.98	–	P497L
1.9	–	–	–	–	–	N402T
5.55	–	7.04	5.58	–	–	P163K
1.78	6.66	–	–	2.39	–	R270L
2.97	3.9	3.6	–	–	5.98	K66A
1.6	–	–	–	3.03	1.74	A385K
20.7	–	21.3 and 14.9	30.8	–	–	I141A
2.05	2.9	2	–	–	–	R379A
2.92 and 3.34	–	–	–	–	–	A155L
2.55 and 1.66	2.55 and 2.14	–	–	–	–	M343A
2.88 and 3.18	3.19	3.76	2.07 and 4.72	–	1.45	M343E
3.5	1.81	–	3.6	–	–	M343K
8.86	3.97	6.43	–	–	5.49	A406I
3.35	–	–	–	–	–	D430K
3.04	6.55	–	2.39	2.55 and 4.04	3.17	L375E
2.48	–	–	–	–	–	M357K
2.66	3.99	2.28	–	–	–	L342A
3.93 and 2.71	–	–	–	–	–	R383L
2.14	–	–	–	–	–	N482K
2.08	6.29	–	–	–	–	G146L
4.41	–	9.08	4.66	2.07	–	Q82A
1.95	–	–	–	–	–	R268P
1.79	–	–	–	4.2	–	Q317E

enrichment [1]	enrichment [2]	enrichment [3]	enrichment [4]	enrichment [5]	enrichment [6]	Variant
2.5	5.2 and 4.57	–	5.63	1.39 and 4.04	4.37	A319E
1.44	–	–	–	–	–	E311A
2.14	–	–	–	–	–	P400A
7.29	–	–	–	2.02	3.53	G114A
2.53	–	–	–	–	–	D69A
4.7	–	–	–	–	–	M122E
1.53	–	–	–	–	–	L390W
2.4	1.59	2.94	–	–	–	C217Y
2.72 and 2.96	3.96 and 3.74	3.54 and 3.02	2.75	–	–	E349T
1.95	–	–	–	–	–	R227K
2.28	1.79 and 3.15	–	3.19 and 2.75	2.93	–	I329E
2.67	3.34	–	–	–	–	I412A
1.95	2.74	–	–	–	–	K88R
3.32 and 4.31	6.23 and 2.68	3.69	–	–	–	L151R
3.05	–	–	–	–	–	L151K
6.87	5.24	5.38	7.48	–	–	S55E
3.83	–	–	–	–	–	N457L
4.95	–	–	–	–	–	E265K
3.19	3.78	7.66	4.47	–	–	E265L
1.55	–	–	–	–	–	G219E
1.62	–	–	–	–	–	A312G
4.91	–	3.06	8.45	–	5.71	Y161K
2.53	2.63	–	2.23	2.34	2.72	Y161A
1.49	–	–	–	–	–	G419K
6.8	–	–	–	–	–	M292A
